# Assay results from patent publication US10501549B2, “Methods of inhibiting pathological angiogenesis with doppel-targeting molecules” (SEOUL NATIONAL UNIVERSITY R&DB FOUNDATION, priority 2015, dated 2019).
# B1: 5C7: murine anti-doppel mAb of hybridoma clone 5C7; VL SEQ ID NO: 53, VH SEQ ID NO: 59 (antibody, V domains shown)
# VH: QVQLQQSGTELVRPGSSVKISCKASGYAFSSHWMNWVKQRPGQGLEWIGQIYPRNGDTNYNGKFKGKATLTADKSSSTAYMQLSSLTSEDSAVYFCSRSTTIVTTGAYWGQGTLVTVSA
# VL: DIQMTQSPSSLSASLGERVSLTCRASQEISGYLSWLQQKPDGTIKRLIYAASILDSGVPKRFSGSRSGSDYSLTISSLESEDFADYYCLQYASYPFMFGAGTKLELKR
# B2: 4D6: murine anti-doppel mAb of hybridoma clone 4D6; VL SEQ ID NO: 49, VH SEQ ID NO: 55 (antibody, V domains shown)
# VH: QVQLHQSGSELARPGASVKLSCKASGYTFTNYWMQWVKQRPGQGLEWIGAIYPGDGNTRYSQKFKGKATLTADKSSSTAYMQLSSLASEDSAVYYCARRDYGSSYWYFDVWGAGTTVTVSS
# VL: DVLMTQTPLSLPVSLGDQASISCRSSQSIVHSNGNTYLEWYLQKPGQSPKLLIYKVSNRFSGVPDRFSGSGSGTDFTLKISRVEAEDLGVYYCFQGSHVPLTFGAGTKLELKR
# Legend:
# VEGFR2 [1] = assay: VEGF-induced VEGFR2 phosphorylation in HUVECs in presence of rDPl; assay type: cell-based, human; details: in the presence of rDPl
# HUVEC spheroids [2] = assay: HUVEC spheroid sprouting with VEGF and rDPl; assay type: cell-based, human; details: co-treated with VEGF, different concentrations rDPl
# Procedure: To test this hypothesis, HUVEC spheroids were treated with VEGF in the presence or absence of rDPl. VEGF promoted HUVEC spheroid sprouting; the sprouting was augmented when co-treated with different concentrations rDPl and in Hu.dpl spheroids (FIG. 27A).
# HUVEC spheroids [3] = assay: HUVEC spheroids implanted in Matrigel-fibrin gel in vivo; set-up: species or system SCID mice; details: VEGF and rDPl-treated HUVEC spheroids
# Excerpt: HUVEC spheroids in vivo were implanted in Matrigel-fibrin gel in the presence of doppel and VEGF following an established protocol (see Alajati et al., Nat Methods. 5:439-445 (2008) and Laib et al., Nat Protoc. 4:1202-1215 (2009)); Hu.dpl spheroids were used to compare. […] In contrast, the presence of VEGF and rDPl generated a complete and perfused vascular bed in the Matrigel-fibrin gel. […] These findings support that rDPl enhances angiogenesis in tumor.
# EL4 tumor = assay: Rescue of EL4 tumor growth in Dpl+/− KO mice by rDPl; assay type: in vivo, Dpl+/− KO C57BL/6 mice
# Procedure: To rescue angiogenesis and growth of tumor, Dpl^+/− KO mice were treated with intravenous injection of 1 mg/kg of rDPl three times after the 4th day of EL4 tumor inoculation. EL4 cells were also inoculated with 1 and 10 μg of rDPl in a mixture with 50 μL of Matrigel, in Dpl^+/− KO mice and grown for 10 days.
# TEC spheroids = assay: TEC spheroid sprouting; assay type: cell-based, mouse
# Procedure: The spheroid-based in vivo angiogenesis assay was performed according to a published procedure. Briefly, 8×10^6 TECs or TEC^−/−dpl were suspended in […] media containing 20% methocel solution and 80% culture medium. Cells were divided into non-adherent plastic square petri dishes, 25 μL for each spheroid. Spheroids formed by TECs or TEC^−/−dpl were harvested and mixed in a matrigel/fibrin mixture that contained mouse VEGF and bFGF. TECs or TEC^−/−dpl spheroids (1000 spheroids per plug) were inoculated subcutaneously in the flank of each female SCID mouse (5-6 weeks, Jungang Animal Lab, Korea) or female Balb/c nude mice (Orinet bio, Seongnam, Korea). The spheroids were allowed to grow for 3 weeks. Cy5.5-labeled LMWH, at a dose 2.5 mg/kg, was injected intravenously, and at 2 hours after injection, its accumulation at the site of TEC implantation was checked using Optimax-MX3 (GE Medical Systems, Milwaukee, Wis.). In other experiments, Cy5.5-labeled LHbisD4, at a dose 10 mg/kg, was administered orally, and its distribution was also checked as described previously. The matrix plug was removed and part of the plugs was analyzed for microvessel density and drug accumulation by immunofluorescence staining.
# Custom made murine anti-doppel mAbs were acquired and tested for recognition of mouse doppel present in host-derived blood vessels of tumors, ability to block doppel function in vitro, and ability to arrest tumor growth. The selection strategy involved screening for binding with mouse doppel using ELISA and testing for ability to detect doppel protein in TEC lysates using western blot. Six independent clones (7D9, 1B12, 1C8, 5C7, 4D6, and 6F11) were identified. Of the six clones, 5C7 and 4D6 abrogated mouse VEGF (mVEGF)-induced sprouting of TEC spheroids (FIG. 20A, B).
# VEGFR2 [4] = assay: mVEGF-induced VEGFR2 phosphorylation in TECs (immunoblot); assay type: cell-based, mouse; details: purified clones
# doppel = doppel (Mus musculus, UniProt Q9QUG3); assay: Epitope mapping; assay type: binding; details: doppel peptide mapping
# Excerpt: (The same sequence appears in both mouse and human doppel.) FIG. 32 discloses SEQ ID NOS 63-98, respectively, in order of appearance, in the x-axis of the graph and SEQ ID NO: 11 in the body of the graph.
# (The corresponding sequence in human doppel is FPDGIH (SEQ ID NO: 61).) FIG. 33 discloses SEQ ID NOS 63-98, respectively, in order of appearance, in the x-axis of the graph and SEQ ID NOS 99-102, 12 and 103-104, respectively, left to right, in order of appearance, in the body of the graph.
# CT26 colon cancer = CT26 colon cancer model, tumor growth and angiogenesis; assay type: in vivo, mice; details: for tumor volume and weight: intravenous 5 and 10 mg/kg, compared to saline and control IgG; for reduction of tumor growth: intravenous
# Procedure: Based on the in vitro data, clones 4D6 and 5C7 were selected to study the anti-tumor and anti-angiogenic effect of in a murine-derived CT26 colon cancer model. When the tumors reached an average size of 50 mm^3, the mice were treated with intravenous doses of 5 and 10 mg/kg 4D6 and 5C7 mAb clones. […] When administered at a dose of 10 mg/kg once or twice a week, 4D6 mAb reduced the tumor growth by 71.1±4.2% or 87.9±3.9%, respectively.
# VEGFR2 [5] = assay: VEGFR2 dimerization/clustering in Hu.dpl cells (proximity ligation assay, western blot); assay type: cell-based, human
# Excerpt: The effect of doppel on VEGFR2 dimerization in the absence of VEGF was investigated. In situ proximity ligation assay (PLA) was used to see VEGFR2 homodimers/clusters in intact cells (FIG. 22G, H). […] It was observed that the dynamics between VEGFR2 monomer-dimer using western blot (FIG. 28A). In HUVECs, the prominent 125 kDa and a relative weaker 250 kDa band appeared as VEGFR2 monomer and dimer, respectively. In Hu.dpl cells, VEGFR2 was detected at 250 kDa band in immunoblots.
# [6] = Preliminary safety observations in treated tumor-bearing mice; assay type: in vivo
# [7] = tested on: HCT116 human colon cancer; assay: HCT116 human colon cancer mouse xenograft; assay type: in vivo, mice
# Excerpt: The antitumor effect of 4D6 mAb was also observed in HCT116 human colon cancer mouse xenografts. 4D6 mAb inhibited tumor growth (FIG. 19C, D), doppel- and CD31-positive tumor vessels (FIG. 19E), and mean tumor blood vessels density commensurately with dose and dosing frequency (FIG. 19F, G).
# [8] = mVEGF-induced, cell supernatants of clones
# [9] = purified clones, different concentrations
Molecule,VEGFR2 phosphorylation by VEGF (VEGFR2 [1]),HUVEC spheroid sprouting (HUVEC spheroids [2]),hemoglobin content of spheroid plugs (HUVEC spheroids [3]),growth of tumors (EL4 tumor; EL4 cells inoculated with 1 and 10 μg of rDPl in Matrigel),localization in tumor tissues (EL4 tumor; intravenously injected rDPl),sprouting of TEC spheroids (TEC spheroids; [8]),sprouting of TEC spheroids (TEC spheroids; [9]),VEGFR2 phosphorylation in TECs (VEGFR2 [4]),epitope bound (doppel),tumor volume and weight (CT26 colon cancer),"VEGFR2 dimerization/clustering (VEGFR2 [5]; Hu.dpl cells, in situ PLA)","VEGFR2 band in immunoblot (VEGFR2 [5]; treated Hu.dpl cells, untreated Hu.dpl 250 kDa (dimer)) [kDa]",body weight [6],clinical chemistry or hematological blood profile [6],organ pathology upon inspection and histological analysis [6],doppel- and CD31-positive tumor vessels and mean tumor blood vessels density ([7]; commensurately with dose and dosing frequency),"tumor growth ([7]; intravenous 5 and 10 mg/kg once a week, 10 mg/kg twice a week)",reduction of tumor growth (CT26 colon cancer; 10 mg/kg once a week) [%],reduction of tumor growth (CT26 colon cancer; 10 mg/kg twice a week) [%]
rDPl: recombinant doppel (rDPl) protein,robustly and dose dependently increased,augmented,higher than control and VEGF-treated spheroids,dose dependently rescued,concentrated and colocalized with VEGFR2- and CD31-positive vessels,,,,,,,,,,,,,,
B1,,,,,,abrogated,dose-dependently prevented,dose-dependently prevented,FPDGIY,markedly regressed,severely compromised,125,no changes,no alteration,no obvious organ pathology,,,,
B2,,,,,,abrogated,dose-dependently prevented,dose-dependently prevented,YWQFPD,markedly regressed,,,no changes,no alteration,no obvious organ pathology,inhibited,inhibited,71.1±4.2,87.9±3.9
